Results on eight molecules are retold here after patent US20240368566A1, “PYK2-DERIVED PEPTIDES FOR INHIBITING INVADOPODIA-MEDIATED CANCER METASTASIS” (BAR-ILAN UNIVERSITY, priority 2023, published 2024).

In one test the target is T1, cortactin SH3 domain (Mus musculus, UniProt Q60598).
T1 construct: nucleotides1468-1641); 6xHis (N, cleaved yes); made in house; host or cells: E. coli BL21 (DE3)
The experiment in a line: NMR affinity determination, binding of peptides to purified cortactin-SH3. Conditions: for loss of affinity: mutant versus Pyk2-PRR2. How it is done: The DNA sequence encoding the SH3 domain of the mouse cortactin SH3 domain (GenBank ID U03184; nucleotides1468-1641) was sub-cloned into a pET-28a plasmid (Novagen, Merck) in frame with the cleavable N-terminal 6×His tag. Isotopically labeled cortactin-SH3 for heteronuclear NMR experiments was expressed in transformed E. coli BL21 cells (DE3) grown in the presence of kanamycin (50 mg/1) and chloramphenicol (34 mg/1) at 37° C. in M9 minimal medium. For ^15N (^13C) labeling the medium contained 1 g/L of ^15NH4Cl (4 g/L ^13C6-glucose), and 0.25 g/l of appropriately labeled Celtone Base Powder (Cambridge Isotope Laboratories, Andover, MA) was added. For triple-labeled ^2H,^13C,^15N—SH3, expression began in 100 ml of the above medium grown to an OD600 of 0.4-0.5 and gently centrifuged. Pellets were then resuspended in 500 ml filter-sterilized D20-based ^15N-M9 supplemented with ^2H7-^13C6-glucose (2 g/1) and DCN-Isogro (0.25 g/1) to reach a final OD600 of −0.1. In both cases cells were then grown at 37° C. and induced with 0.5 mM isopropyl β-D-1-thiogalactopyranoside (IPTG) upon reaching OD600-0.8, followed by overnight growth at 27° C. To purify the SH3 domain, cells were harvested by centrifugation, subjected to a single freeze-thaw cycle, and resuspended in lysis buffer (50 mM NaPi pH 8.0, 300 mM NaCl, 1 mM dithiothreitol (DTT), 100 ml per liter of culture) supplemented with 1 tablet EDTA-free protease inhibitor cocktail (Merck) and benzamidine (5 mM). Cells were lysed by French press, followed by addition of benzamidine (final concentration 10 mM) and phenylmethylsulfonyl fluoride (PMSF, 1 mM), and the lysate was clarified by centrifugation. The supernatant was loaded on a HisTrap HP column (GE Healthcare, Chicago, IL, USA) equilibrated with lysis buffer and the protein eluted through a gradient (Buffer B: 50 mM NaPi pH 8.0, 100 mM NaCl, 300 mM imidazole, 1 mM DTT). To the fraction eluting at ˜40% B purified tobacco etch virus (TEV) protease (1:30 mol:mol) was added, and the mixture dialyzed overnight at 4° C. against dialysis buffer (50 mM NaPi at pH 8.0, 100 mM NaCl, 1 mM DTT). The dialysate was brought to a final concentration of ˜5 mM imidazole, filtered, and loaded onto a HisTrap column. The collected flowthrough was dialyzed against 20 mM Tris (pH 7.5), 1 mM DTT for 3 h to reach a final concentration of 10 mM NaCl. […]
Purified SH3 was dialyzed against NMR sample buffer (30 mM NaPi, pH ˜6.5) and concentrated to the desired concentration in an Amicon concentration tube (3 kDa MWCO) (Merck). […] For quantitative titrations, purchased peptides were dissolved in 100-300 μl NMR sample buffer, and samples at varying (SH3:PRR2 1:0-1:6, SH3 concentration constant at 0.1 mM) ratios were prepared. Fittings were performed with 5-6 measured points. […]

Test [1] concerns MDA-MB-231 cells. The experiment in a line: 3D scratch wound assay in Matrigel. The note with it: MMP inhibitor, 25 µM. The test is classed as cell-based, human. How it is done:
The 3D scratch wound assay was performed as described in Meirson et al. Targeting invadopodia-mediated breast cancer metastasis by using ABL kinase inhibitors. Oncotarget 2018; 9: 22158-22183. Briefly, 96 well Image Lock microtiter plates (Essen Bioscience) were coated with 100 μg/ml Matrigel (cat #354234; Corning, New-York, NY, USA). Following overnight incubation at 37° C., MDA-MB-231 cells were plated at a final concentration of 350,000 cells/ml and allowed to adhere for 12-16 h in the presence of Pyk2-PRR or control peptides. Following wounding of the bottom Matrigel-cells layer, a top layer of Matrigel was added to a final concentration of 2 mg/ml and allowed to polymerize for 30 min at 37° C. Pyk2-PRR or control scrambled peptides were then added again in DMEM/10% FBS to a final concentration of 0.1, 1, or 5 μM, with or without the MMP inhibitor GM6001 ([…]). Plates were placed in a 37° C. heated chamber, and images were collected using the IncuCyte® Zoom platform (Essen Bioscience; 20×, NA 0.60, air objective). Phase images were collected every one hour for a total of 12 h using the IncuCyte® acquisition software.

The test system of test [2] is MDA-MB-231 cells. The experiment in a line: 2D single-cell random migration assay. It is filed as cell-based, human. Conditions: highest (higher) peptide concentration; 12 hours; compared to control peptide; data not shown. How it is done:
The 2D single-cell random migration assay was performed as previously described in Genna et al. Pyk2 and FAK differentially regulate invadopodia formation and function in breast cancer cells. J Cell Biol 2018; 217: 375-395. In brief, 6-well microtiter plates were coated with 10 μg/ml fibronectin and blocked with 1% denatured BSA. Peptide pre-treated cells were plated at 20,000 cells/well in DMEM/10% FBS containing peptides and allowed to adhere for 12-16 h. Plates were placed in a 37° C. heated chamber, and images were collected using the IncuCyte® Zoom platform (Essen Bioscience, Ann Arbor, MI, USA; 20×, NA 0.60, air objective). Phase images were collected every one hour for a total of 12 h using the IncuCyte® acquisition software. Trajectory plots, accumulated distance (total cell path length), Euclidean distance (the shortest distance between the starting point and endpoint of migration), and velocity were calculated using the chemotaxis and migration tool (ibidi GMBH, Grafelfing, Germany).

The subject of test [3] is MDA-MB-231 cells. Kind of test: Invadopodium precursor formation assay. The note with it: at higher peptide concentrations. It is filed as cell-based, human. The procedure:
The invadopodium precursor formation assay was performed as described in Genna et al., 2018 (supra). Briefly, gelatin was conjugated to Alexa 405 dye (Thermo Fisher Scientific). MatTek dishes were treated with 1 N HCl and coated with 50 μg/ml poly-L-lysine. A 0.2% gelatin solution was prepared in PBS, and a 1:20 mixture of Alexa 405-labeled gelatin/unlabeled gelatin was warmed to 37° C. before addition to the poly-L-lysine coated plates. Gelatin was cross-linked with 0.01% glutaraldehyde followed by quenching with 5 mg/ml sodium borohydride. 125,000 MDA-MB-231 cells were plated on Alexa 405-labeled gelatin plates in the presence of 0.1, 1, or 5 μM of Pyk2-PRR peptides or scrambled control for 4 h. At the end of incubation, cells were fixed in 3.7% paraformaldehyde, permeabilized with 0.1% Triton X-100, blocked with 1% FBS, 1% BSA in PBS, and labeled with anti-Tks5 and anti-cortactin. Images were acquired using an inverted fluorescent microscope (Leica AF6000; 63×, NA 1.4, oil objective, Leica LAS AF acquisition software) (Wetzlar, Germany) equipped with an ORCA-Flash 4.0 V2 digital CMOS camera (Hamamatsu Photonics, Shizuoka, Japan).

The target of test [4] is T2, cortactin-SH3 domain (mouse cortactin SH3 domain, GenBank ID U03184; nucleotides 1468-1641) (mouse, UniProt Q60598 490-546, isotopically labeled (15N, 13C and/or 2H) for NMR).
T2 construct: domain: SH3 domain; also called purified cortactin-SH3
The experiment in a line: NMR chemical shift titration (1H,15N-HSQC), unlabeled peptide into 15N-SH3.

The target of test [5] is T2, cortactin-SH3 domain (mouse cortactin …). The experiment in a line: NMR chemical shift titration (1H,15N-HSQC).

“Also recorded” adds a separate entry of the source. Where no end group is shown, it is not given here.

T2 sequence (Q60598 490-546 limits assumed): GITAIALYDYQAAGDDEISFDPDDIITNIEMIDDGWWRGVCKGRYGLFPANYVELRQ

In the test with cortactin SH3 domain, “TAFQEPPPKPSR [Δ720-726 deletion mutant, Pyk2-PRR2 truncated to positions 708-719]” yielded a loss of affinity of 27 fold.

At cortactin SH3 domain (capped Pyk2-PRR2 derivatives, NMR titration isotherm, unit inferred), `CC(=O)N[C@@H](C(=O)N[C@H](C)C(=O)N[C@H](Cc1ccccc1)C(=O)N[C@H](CCC(N)=O)C(=O)N[C@@H](CCC(=O)O)C(=O)N1CCC[C@H]1C(=O)N1CCC[C@H]1C(=O)N1CCC[C@H]1C(=O)N[C@@H](CCCCN)C(=O)N1CCC[C@H]1C(=O)N[C@@H](CO)C(=O)N[C@@H](CCCNC(=N)N)C(=O)N1CCC[C@H]1C(=O)N[C@@H](CCCCN)C(=O)N[C@@H](Cc1ccc(O)cc1)C(=O)N[C@H](CCCNC(=N)N)C(=O)N1CCC[C@@H]1C(=O)N1CCC[C@@H]1C(=O)N1CCC[C@@H]1C(N)=O)[C@H](C)O` [SEQ ID NO: 9, TAFQEPPPKPSRPKYRPPP] returned a Kd of 15 ± 2 µM.

With `CNC(=O)[C@H](Cc1c[nH]c2ccccc12)NC(=O)[C@@H](CC(=O)NO)CC(C)C` [GM6001, reference compound], the ECM invasion result in the test with MDA-MB-231 cells [1] was “fully inhibited”.

“TAFQEPPPKPSRPKARPPP [Y722A, Pyk2-PRR2 708-726 with Y722A substitution]”: the loss of affinity with cortactin SH3 domain is listed as 3.5 fold.

For “EFTGPPQKPPRLGAQS [Pyk2-PRR3, EFTGPPQKPPRLGAQS]”, the “2D motility (accumulated and Euclidean distances, velocity)” value in the test on MDA-MB-231 cells [2] is reported as “reduced 2D motility; also recorded: minor effect”. Also, the “invadopodia formation and maturation” value in the test on MDA-MB-231 cells [3] is given as “minor effect”.

B1: Pyk2-PRR3 peptide (SEQ ID NO: 2) (peptide)
peptide: EFTGPPQKPPRLGAQS
notes: Unlabeled synthetic peptide as used in the NMR titration
For the molecule B1, the Kd in test [4] was found to be 650 µM.

With HAIYPRHTAFQEPPPKPSRPKYRPPP-NH2 [Tf-tag-Pyk2-PRR2, HAIYPRHTAFQEPPPKPSRPKYRPPP-NH2 (SEQ ID NO: 7 + C-term cap)], in test [5], the equilibrium dissociation constant (Kd) was 8 µM.

B2: Pyk2-PRR2-Tf-tag, Ac-TAFQEPPPKPSRPKYRPPPHRPYIAH (SEQ ID NO: 8 + N-term cap) (peptide)
peptide: Ac-TAFQEPPPKPSRPKYRPPPHRPYIAH
notes: Pyk2-PRR2 (human Pyk2 708-726) followed by a C-terminal tag printed as HRPYIAH, the reverse of the Tf tag
As for B2, the dissociation constant Kd in test [5] came to 2 µM.

Usually Kd stands for a measure of binding affinity in units of concentration.
